The experiment deals with Fc gamma receptors on mouse peritoneal macrophages (mouse (endogenous in peritoneal macrophages)). The experiment in a line: flow cytometry on cells; ImageStream X imaging flow cytometry; peritoneal wash cells (2 x 10^6) in 100 uL 1% BSA PBS stained with 0.125 ug mouse IgG-DyLight 405 and anti-CD11b-FITC, 30 min, room temperature; no Fc block. For orientation: In flow cytometry, cells or beads pass a laser one at a time.

Substance “mouse IgG-DyLight 405 (fluorescently conjugated mouse monomeric IgG) (antibody)” showed a percent of CD11b+ macrophages that bound exogenous IgG of 98.6%.

Source of the values: article PMC11266516.
